# Data: the supplement of paper PMC10126150
# ± gives the standard deviation of the averaged measurements.
# Tested on: ATP
# Experiment: switch fluorescence ratio, 500 uM ATP over buffer (Cy3 cluster intensity, sum of 5 cycles each) (fold (ratio)); higher = stronger signal-on switching upon ATP binding; sequences stand for … in TCGTCGGCAGCGTCAGATGTGTATAAGAGACAGTTTTTTTTTTTTTTTTTTTTTTTTT…TC
# Conditions: aptamer strand: ATP DNA aptamer (quencher-CACCTGGGGGAGTATTGCGGAGGAAGG + anchor), 100 nM annealed; ATP concentration: 500 uM
# In short: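 Exposure to 500 uM ATP lasted 15 min at 22 °C before imaging, and a selection-buffer image was taken beforehand, for Cy3-labelled switching-strand clusters on a modified Illumina MiSeq flow-cell annealed to 100 nM quencher-labelled ATP aptamer. Five buffer/ATP cycles were run with NaOH stripping and re-annealing between them. The fluorescence ratio per cluster is summed target-cycle over summed buffer-cycle Cy3 intensity, averaged per switch-domain sequence. Clusters outside 100-1000 RFU were excluded.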
row,Sequence,switch fluorescence ratio
1,TTAGGTTGGC,1 ± 0.069
2,TTAGGTTGGG,1.02 ± 0.056
3,TTAGGTTGTA,0.974 ± 0.025
4,TTAGTAGAAC,0.993 ± 0.013
5,TTAGTATATT,1.03 ± 0.0093
6,TTAGTCCACT,1.0047 ± 0.001
7,TTAGTCCTTG,0.9914 ± 0.0024
8,TTAGTGAGGT,1 ± 0.027
9,TTAGTGGATT,0.9958 ± 0.0073
10,TTAGTGGGGG,0.998 ± 0.029
11,TTAGTGGTTG,0.992 ± 0.014
12,TTAGTGTCGA,1.02 ± 0.04
13,TTAGTGTGCT,1 ± 0.026
14,TTAGTGTTGT,0.969 ± 0.028
15,TTAGTTAAT,1.02 ± 0.023
16,TTAGTTAGGT,1.004 ± 0.0046
17,TTAGTTATTG,1 ± 0.087
18,TTAGTTCGGG,0.965 ± 0.023
19,TTAGTTGATA,1.01 ± 0.018
20,TTAGTTGCTT,1.01 ± 0.03
21,TTAGTTGGCA,0.981 ± 0.016
22,TTAGTTGGGT,1.002 ± 0.008
23,TTAGTTTGTC,0.986 ± 0.063
24,TTAGTTTTAG,1.008 ± 0.0056
25,TTAGTTTTGA,1 ± 0.031

row,Sequence,switch fluorescence ratio
1,TTAGTTTTTG,0.98 ± 0.017
2,TTATAAAGAG,1.01 ± 0.029
3,TTATAACTCA,0.997 ± 0.034
4,TTATACCAAT,1.013 ± 0.0022
5,TTATACGGCG,1.06 ± 0.0059
6,TTATACGTTG,1.02 ± 0.019
7,TTATACTGAA,1.05 ± 0.021
8,TTATAGAGTT,0.9649 ± 0.0032
9,TTATAGCAGT,1.06 ± 0.04
10,TTATAGGGGA,0.998 ± 0.082
11,TTATAGGGTA,1 ± 0.017
12,TTATAGTATC,0.948 ± 0.02
13,TTATAGTTTG,0.997 ± 0.03
14,TTATATATAA,1.01 ± 0.027
15,TTATATCGGT,0.971 ± 0.011
16,TTATATGATT,0.997 ± 0.036
17,TTATATTGCG,0.9885 ± 0.0014
18,TTATATTTGT,0.98 ± 0.02
19,TTATCAGGGG,1.08 ± 0.12
20,TTATCATTC,1.01 ± 0.019
21,TTATCCAGCT,1.01 ± 0.012
22,TTATCCCGAA,0.991 ± 0.0085
23,TTATCCTGGT,0.975 ± 0.011
24,TTATCCTTCA,1.27 ± 0.36
25,TTATCGAGGG,0.989 ± 0.03

row,Sequence,switch fluorescence ratio
1,TTATCGATAG,0.985 ± 0.019
2,TTATCGATGG,0.987 ± 0.022
3,TTATCGATTT,0.995 ± 0.028
4,TTATCGCGAC,1.67 ± 0.82
5,TTATCGGGAC,1 ± 0.049
6,TTATCGGTGT,0.968 ± 0.038
7,TTATCGTGCG,0.9661 ± 0.0079
8,TTATCGTTGG,1 ± 0.031
9,TTATCTACGT,1.07 ± 0.035
10,TTATCTCTGT,0.999 ± 0.022
11,TTATGAATTT,0.98 ± 0.026
12,TTATGATTGT,1.02 ± 0.03
13,TTATGATTTG,1.02 ± 0.02
14,TTATGCCACG,1.04 ± 0.016
15,TTATGCGTTT,1.2 ± 0.28
16,TTATGCTTGG,0.976 ± 0.031
17,TTATGGACCT,1.331 ± 0.0094
18,TTATGGGAA,1.04 ± 0.038
19,TTATGGGGCG,1.02 ± 0.035
20,TTATGGGTCA,0.983 ± 0.025
21,TTATGTGGGT,0.989 ± 0.029
22,TTATGTTAGG,0.97498 ± 0.00083
23,TTATGTTCGA,1.018 ± 0.005
24,TTATTAAAAT,0.997 ± 0.021
25,TTATTAAATC,1.008 ± 0.0064

row,Sequence,switch fluorescence ratio
1,TTATTAAGCT,1.01 ± 0.027
2,TTATTACGG,1 ± 0.027
3,TTATTAGGGG,0.983 ± 0.028
4,TTATTAGTGA,0.9904 ± 0.006
5,TTATTATTGG,0.986 ± 0.013
6,TTATTCAAAA,1 ± 0.023
7,TTATTCGGTT,0.982 ± 0.031
8,TTATTCGTTG,0.99 ± 0.025
9,TTATTCTTGT,1 ± 0.017
10,TTATTGGAAT,1 ± 0.063
11,TTATTGGGGA,0.974 ± 0.024
12,TTATTGGTGT,1.01 ± 0.024
13,TTATTGTTAG,0.9784 ± 0.0027
14,TTATTTAAAA,1 ± 0.02
15,TTATTTAAAG,1.018 ± 0.0024
16,TTATTTAATC,1.01 ± 0.038
17,TTATTTAGCA,0.987 ± 0.038
18,TTATTTCAAG,1.01 ± 0.064
19,TTATTTCATT,0.9966 ± 0.0062
20,TTATTTCCGG,1.01 ± 0.028
21,TTATTTGGA,0.98 ± 0.04
22,TTATTTGGAT,0.9897 ± 0.005
23,TTATTTGGGA,0.991 ± 0.043
24,TTATTTTATT,0.998 ± 0.021
25,TTATTTTCAT,1 ± 0.025
